{"source": "paper PMC2844890", "proteins": {"B1": {"name": "tetherin (BST-2): N65,92A (protein)", "parent chain": "MASTSYDYCRVPMEDGDKRCKLLLGIGILVLLIIVILGVPLIIFTIKANSEACRDGLRAVMECRNVTHLLQQELTEAQKGFQDVEAQAATCNHTVMALMASLDAEKAQGQKKVEELEGEITTLNHKLQDASAEVERLRRENQVLSVRIADKKYYPSSQDSSSAAAPQLLIVLLGLSALLQ"}}, "assay": "infectious virion yield", "settings": "glycan lost; control: WT tetherin"}
{"protein": "B1", "values": [{"measurement": "other: inhibition of virion release", "value": "abolishes"}]}
